Laboratory results from US20250163116A1, “NEW METHOD TO TREAT INFECTIOUS DISEASES” (INSERM (INSTITUT NATIONAL DE LA SANTÉ ET DE LA RECHERCHE …, priority 2022, published 2025).

Tested on: SCID mice grafted with human skin infected with Nm 2C4.3
Assay: Vascular lesions in SCID mice grafted with human skin infected with N. meningitidis (4 h)
Format: in vivo
Details: for vessel thrombosis in skin grafts / integrity of the endothelial cell junctions (VE-cadherin staining) / vascular colonization of human dermal vessels at 4 hours post-infection: 1 μg/mouse i.v.; for vessel thrombosis in skin grafts: 4 h post-infection
Protocol: FIG. 7: ANGPTL4 reduces signs of thrombosis, vascular injury and inflammation. A-D, SCID mice grafted with human skins were infected intravenously with Nm 2C4.3 wild-type strain (5×10^6 bacteria) or left uninfected. A period of 30 min or 2 h after bacterial challenge, mice received 1 μg of recombinant human ANGPTL4, nANGPTL4 or cANGPTL4 intravenously or the vehicle as a control. Mice were killed at 4 h post-challenge. This experiment was performed twice with n=3 or 4 mice per group, using skin from two different donors. A, A schematic representation of the protocols used in vivo. B, Control bacteraemia 4 h post-infection (mean±s.e.m.). C, Bacterial colonization within the skin grafts as assessed by immunofluorescence analysis was quantified using ImageJ software as the ratio between bacterial surface colonization and the lumen surface of the vessels. A total of 30-50 vessels per mouse were analysed. Error bars show mean±s.e.m. D, Thrombus formation within the skin grafts was assessed by immunofluorescence analysis and quantified using ImageJ as the ratio between thrombus surfaces and the lumen surface of the vessels. A total of 30-50 vessels per mouse were analysed. Error bars show mean±s.e.m.; *** P<0.0001; ns P=0.0541 two-tailed Student's t-test.
Six-week-old CB17/Icr-Prkdcscid female mice were obtained from Janvier Labs. Human skin tissues were obtained from adult patients undergoing plastic surgery in the Service de Chirurgie Plastique et Reconstructive of the Groupe Hospitalier Saint-Joseph. […] Experimental procedures were performed as previously described in accordance with the guidelines of the Institut National de la Santé et de la Recherche Médicale and conformed to the European ethical legislation (Directive 2010/63/EU). The experimental protocol was approved by the Animal Experimentation Ethics Committee of the Université Paris Descartes (consent forms CEEA34.O.J.L.039.12 and 2018012515596498). […]. A skin flap was created and a full thickness human skin graft was placed onto the wound bed. The transplants were held in place with 6-0 non-absorbable monofilament suture materials, and the flap was then sutured above the transplant. Grafted mice were infected 4-6 weeks after human skin transplantation. N. meningitidis was grown overnight at 37° C. on GCB agar plates prepared without iron and supplemented with 15 μM deferoxamine (Desferal, Novartis). Bacterial colonies were harvested and cultured in RPMI media with 1% BSA medium and 0.06 μM deferoxamine with gentle agitation to reach the exponential phase of growth. Bacteria were then resuspended in physiological saline solution. Mice were infected intravenously with 200 μl (5×10^6 bacteria) of this bacterial suspension. A 10 mg dose of human holotransferrin (R&D Systems) was administered intraperitoneally just before infection. Mice were killed at 4 h after infection. Human skin grafts were carefully collected using a sterile cutter. The tissue was washed in PBS and fixed overnight at 4° C. in 4% paraformaldehyde in phosphate buffer. After washing in phosphate buffer, the specimens were embedded in OCT medium and then frozen at −80° C. Sections of the dermis (7 μm thick) were immobilized on Superfrost Plus microscope slides and subjected to immunofluorescence analysis. Sections were incubated with the primary antibodies for 1 h in PBS/3% BSA then DAPI was added to Alexa-conjugated secondary antibodies for 1 h. After additional washing, coverslips were mounted in glycergel (Dako) and were further analysed using a slide scanner (Lamina, Perkin Elmer). Analysis of the images was performed using ImageJ software (NIH). […]

B1: ANGPTL4: Recombinant human ANGPTL4 (Angiopoietin-like 4), full length, SEQ ID NO: 1, purchased from R&D Systems (protein, listed as Homo sapiens)
chain: MSGAPTAGAALMLCAATAVLLSAQGGPVQSKSPRFASWDEMNVLAHGLLQLGQGLREHAERTRSQLSALERRLSACGSACQGTEGSTDLPLAPESRVDPEVLHSLQTQLKAQNSRIQQLFHKVAQQQRHLEKQHLRIQHLQSQFGLLDHKHLDHEVAKPARRKRLPEMAQPVDPAHNVSRLHRLPRDCQELFQVGERQSGLFEIQPQGSPPFLVNCKMTSDGGWTVIQRRHDGSVDFNRPWEAYKAGFGDPHGEFWLGLEKVHSITGDRNSRLAVQLRDWDGNAELLQFSVHLGGEDTAYSLQLTAPVAGQLGATTVPPSGLSVPFSTWDQDHDLRRDKNCAKSLSGGWWFGTCSHSNLNGQYFRSIPQQRQKLKKGIFWKTWRGRYYPLQATTMLIQPMAAEAAS
vessel thrombosis in skin grafts: largely reduced vessel thrombosis | integrity of the endothelial cell junctions (VE-cadherin staining) (data not shown): preserved the integrity of the endothelial cell junctions | effect on inflammatory markers upon administration at 2 h (administration 2 h post-infection, data not shown): no effect | reduction of serum levels of TNF-α, IL-6, IL-8, soluble E-selectin, ICAM-1, VCAM-1, Angiopoetin-2, Thrombomodulin (mice sera, early administration (30 min), data not shown): 60-80%

B2: nANGPTL4: N-terminal fragment of ANGPTL4, aa 26-164, SEQ ID NO: 24, purchased from R&D Systems (protein)
chain: GPVQSKSPRFASWDEMNVLAHGLLQLGQGLREHAERTRSQLSALERRLSACGSACQGTEGSTDLPLAPESRVDPEVLHSLQTQLKAQNSRIQQLFHKVAQQQRHLEKQHLRIQHLQSQFGLLDHKHLDHEVAKPARRK
modifications: nANGPTL4
vascular colonization of human dermal vessels at 4 hours post-infection: no effect on vascular colonization | vessel thrombosis in skin grafts: reduced vessel thrombosis | integrity of the endothelial cell junctions (VE-cadherin staining) (data not shown): preserved the integrity of the endothelial cell junctions

B3: cANGPTL4: C-terminal fragment of ANGPTL4, aa 164-406, fibrinogen-like domain, purchased from R&D Systems (protein, listed as Homo sapiens)
chain: RLPEMAQPVDPAHNVSRLHRLPRDCQELFQVGERQSGLFEIQPQGSPPFLVNCKMTSDGGWTVIQRRHDGSVDFNRPWEAYKAGFGDPHGEFWLGLEKVHSITGDRNSRLAVQLRDWDGNAELLQFSVHLGGEDTAYSLQLTAPVAGQLGATTVPPSGLSVPFSTWDQDHDLRRDKNCAKSLSGGWWFGTCSHSNLNGQYFRSIPQQRQKLKKGIFWKTWRGRYYPLQATTMLIQPMAAEAAS
vascular colonization of human dermal vessels at 4 hours post-infection: no effect on vascular colonization | vessel thrombosis in skin grafts: reduced vessel thrombosis | production of proinflammatory factors and biomarkers of vascular inflammation (1 μg/mouse, data not shown): most efficient at preventing the production of proinflammatory factors and biomarkers of vascular inflammation
